In patent US20070049518A1, “Novel method of treatment of inflammatory skin conditions” (priority 2005, published 2007):
Read-outs that look alike come from different tables or passages of the source.

Key:
[1] = system: single chain pro-uPA; assay: Activation of pro-uPA by aureolysin; assay type: biochemical; conditions: Expt. 1, 2.5 h
[2] = system: Human skin epidermal keratinocytes; assay: Keratinocyte activation, IL-8 production; assay type: cell-based; conditions: 48 hours, aureolysin 50 μg/ml
Source text: Activated keratinocytes produce IL-8, a proinflammatory chemokine. Many bacterial products cause the activation of keratinocytes. Aureolysin may be evaluated for its effects on IL-8 production by keratinocytes. Human skin epidermal keratinocytes (TCS Cellworks) are maintained as per instructions. Proliferating cultures are trypsinised, harvested, treated with a trypsin inhibitor and resuspended in growth medium at approximately 50,000 cells/well, to provide confluent monolayers in 96 well plates. Cells are incubated overnight at 37° C. at 5% CO2 to allow recovery, the spent medium aspirated from the wells and replaced with fresh growth medium. The cells are incubated at 37° C. at 5% CO2 for a further 24 or 48 hours with aureolysin or buffer control.
The supernatants are removed from each well and the concentration of IL-8 is determined using a human IL-8 ELISA development kit from R&D systems (Catalog Number: DY208) using the manufacturers instructions.
In these experiments, the cells are incubated at 37° C. at 5% CO2 for 48 hours with aureolysin or buffer control. Poly IC and lipoteichoic acid (LTA), which stimulate IL-8 production in keratinocytes were used as positive controls.

[3] = system: proenzyme of human rheumatoid synovial fibroblast collagenase (proMMP-1); assay type: biochemical; conditions: aureolysin alone±APMA
Experimental: (§1) Collagenase activity in the samples was then determined by incubation at 25° C. in TCNB containing 0.1 μg/ml (pro)MMP-1 and 0.16 mg/ml porcine type I collagen (MD Biosciences).

[4] = target: T1, proenzyme of human rheumatoid synovial fibroblast collagenase (proMMP-1) (Homo sapiens, UniProt P03956); assay type: biochemical; conditions: for α1-chain ¾ - length product: aureolysin 3 μg/ml and/or 1 mM APMA
T1 construct: the proenzyme of human rheumatoid synovial fibroblast collagenase (Calbiochem); purchased Calbiochem; host or cells: human rheumatoid synovial fibroblasts (as the product's name says)
T1 sequence (P03956 20-469): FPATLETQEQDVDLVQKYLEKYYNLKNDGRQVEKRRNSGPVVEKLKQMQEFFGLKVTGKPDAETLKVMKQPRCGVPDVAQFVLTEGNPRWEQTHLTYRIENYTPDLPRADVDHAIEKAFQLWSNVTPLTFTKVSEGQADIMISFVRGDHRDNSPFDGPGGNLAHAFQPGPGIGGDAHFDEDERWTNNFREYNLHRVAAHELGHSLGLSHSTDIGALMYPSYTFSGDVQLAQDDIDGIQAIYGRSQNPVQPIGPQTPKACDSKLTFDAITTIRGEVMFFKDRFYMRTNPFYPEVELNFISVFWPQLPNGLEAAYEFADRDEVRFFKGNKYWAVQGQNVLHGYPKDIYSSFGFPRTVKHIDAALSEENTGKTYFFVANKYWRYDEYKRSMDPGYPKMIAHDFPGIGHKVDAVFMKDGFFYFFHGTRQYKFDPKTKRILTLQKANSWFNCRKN
Experimental: as §1

## aureolysin: metalloprotease (EC 3.4.24.29) secreted by Staphylococcus aureus, single chain of 301 amino acids
[1]; aureolysin 0.1 μg/ml, MES pH 5.6
  Urokinase activity after pro-uPA activation: 2.31 A405/0.5 h/μg
[1]; aureolysin 0.1 μg/ml, Tris-HCl pH 7.5
  Urokinase activity after pro-uPA activation: 0.65 A405/0.5 h/μg
[1]; aureolysin 0.3 μg/ml, MES pH 5.6
  Urokinase activity after pro-uPA activation: 3.76 A405/0.5 h/μg
[1]; aureolysin 0.3 μg/ml, Tris-HCl pH 7.5
  Urokinase activity after pro-uPA activation: 1.43 A405/0.5 h/μg
[1]; aureolysin 1 μg/ml, MES pH 5.6
  Urokinase activity after pro-uPA activation: 4.68 A405/0.5 h/μg
[1]; aureolysin 1 μg/ml, Tris-HCl pH 7.5
  Urokinase activity after pro-uPA activation: 3.29 A405/0.5 h/μg
[2]
  IL-8 ± SE: 687 pg/mL
[2]; listed as Aureolysin
  IL-8 ± SE: 687 ± 0.7 pg/mL
[3]
  collagenase activity of control incubations without proMMP-1 (in words): no activity
[4]; Time 0 h
  α1-chain ¾ - length product: 0 arbitrary units
[4]; Time 0.5 h
  α1-chain ¾ - length product: 1709 arbitrary units
[4]; Time 1 h
  α1-chain ¾ - length product: 3726 arbitrary units
[4]; Time 1.5 h
  α1-chain ¾ - length product: 5115 arbitrary units
[4]; Time 2 h
  α1-chain ¾ - length product: 8742 arbitrary units
[4]; Time 3 h
  α1-chain ¾ - length product: 12718 arbitrary units
[4]; Time 4 h
  α1-chain ¾ - length product: 16882 arbitrary units
[4]; Time 5 h
  α1-chain ¾ - length product: 17558 arbitrary units
[4]; Time 6 h
  α1-chain ¾ - length product: 19436 arbitrary units
[4]; relative to untreated control (MMP-1 alone = 1)
  Relative rate of collagen cleavage: 3
